Consider one molecule from US20170101470A1 (PROTHENA BIOSCIENCES, published 2017).

In experiment [1] the target is T1, human MCAM S238A mutant clone on BHK-S cells (human) (UniProt P43121).
T1 sequence: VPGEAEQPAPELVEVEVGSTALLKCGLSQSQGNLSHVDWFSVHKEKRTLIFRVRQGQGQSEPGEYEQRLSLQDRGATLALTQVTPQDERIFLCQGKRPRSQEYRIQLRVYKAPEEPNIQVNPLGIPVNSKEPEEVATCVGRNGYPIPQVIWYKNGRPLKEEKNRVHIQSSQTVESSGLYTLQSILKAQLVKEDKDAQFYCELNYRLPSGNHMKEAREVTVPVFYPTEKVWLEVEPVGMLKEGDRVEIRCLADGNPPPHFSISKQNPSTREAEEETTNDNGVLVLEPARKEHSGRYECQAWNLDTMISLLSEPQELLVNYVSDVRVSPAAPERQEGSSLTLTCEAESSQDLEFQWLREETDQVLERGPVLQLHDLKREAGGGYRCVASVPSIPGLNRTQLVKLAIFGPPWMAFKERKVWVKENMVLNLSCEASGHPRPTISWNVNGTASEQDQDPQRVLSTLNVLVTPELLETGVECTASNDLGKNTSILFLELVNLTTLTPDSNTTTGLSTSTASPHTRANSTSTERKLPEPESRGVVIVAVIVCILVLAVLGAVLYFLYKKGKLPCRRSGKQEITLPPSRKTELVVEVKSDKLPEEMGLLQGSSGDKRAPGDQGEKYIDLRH
Put plainly: shotgun mutagenesis, immunodetection on BHK-S cells, 0.25 ug/mL, background-subtracted and normalised to WT, triplicate.

In experiment [2] the target is T2, human MCAM L225A mutant clone on BHK-S cells (human) (UniProt P43121).
T2 sequence: T1 sequence with L202A, A215S
The experiment is described as above.

Experiment [3] has as its target T3, human MCAM Y167A mutant clone on BHK-S cells (human) (UniProt P43121).
T3 sequence: T1 sequence with Y144A, A215S
The experiment is described as above.

Experiment [4] deals with T4, human MCAM domain 1 hFc construct (human, UniProt P43121 19-129).
T4 construct: One of the 'various MCAMhFc domains' loaded on the ForteBio sensors; also called MCAMhFc domain 1
T4 sequence: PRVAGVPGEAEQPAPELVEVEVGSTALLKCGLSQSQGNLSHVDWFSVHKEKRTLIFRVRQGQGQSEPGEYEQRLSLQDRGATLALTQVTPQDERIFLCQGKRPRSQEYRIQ
Put plainly: ForteBio Octet Red, MCAMhFc domains on anti-human IgG Fc sensors. From the text: The following protocol was used: ForteBio anti-human IgG Fc biosensors were used to immobilize various MCAMhFc domains including full length MCAMhFc protein on to biosensor surface. […] After loading these samples into a black 96 well plate, the Octet Red was programmed as follows: 60 seconds for baseline #1; 180 seconds for loading various domains; 60 seconds for baseline #2; 180 seconds for association of antibody to domain; and 240 seconds for dissociation of antibody from domain.
Reagents and Supplies Used: [0358] 1. MCAMhFc final concentration @ 5 ug/ml [0359] […] 3. ForteBio anti-human IgG Fc Capture (AHC) biosensors for kinetics experiments, cat#18-5060 [0361] 4. Block 96 well plate from Greiner Bio-one, cat#655209 [0362] 5. ForteBio Octet Red machine [0363] 6. Fresh tissue culture medium, DMEM with 20% FCS, was used as buffer for dilution

Substitutions are numbered along the chain they refer to.

B1: rat anti-human MCAM monoclonal antibody clone 2120.4.19 (antibody, V domains shown)
VH: QVQLKESGPGLVQPSQTLSLTCTVSGFSLTSNGVSWVRQPPGKGLEWIAAISSGGTTYYNSAFKSRLSISRNTSKSQVLLKMNSLQTEDTAMYFCARRYGYGWYFDFWGPGTMVTVSS
VL: DIRMTQSPSLLSASVGDRVTLNCKASQNIYNSLAWYQQKLGEGPKVLIPNANSLQTGIPSRFSGSGSGTDFTLTISSLQPEDFATYFCQQFYSGYTFGAGTKLELK
notes: also called m2120
In the case of B1, the figures for the mean reactivity (% of wild type MCAM) in experiment [1], in experiment [2] and in experiment [3] were 28.9 % WT, 23.8 % WT and 14.3 % WT, respectively. Moreover, the binding result in experiment [4] is reported as “no binding (tested: 5 ug/ml)”.
